In EP2265632B1, “CD4-RELATED POLYPEPTIDES AND METHODS OF USE” (priority 2008, dated 2009):

How the values were obtained:
[1] = molecular target: recombinant HIV-1BaL gp120 (HIV-1 BaL); assay: ELISA on immobilized gp120BaL in 25 mM DTT
[2] = molecular target: recombinant HIV-1BaL gp120 (HIV-1 BaL); assay: ELISA on immobilized gp120BaL in 100 mM β-mercaptoethanol

Substance | percent of the binding seen under native conditions [1] [%] | percent of the binding seen under native conditions [2] [%]
MAb 2G12 (antibody) | 50 | 50
MAb IgG1 b12 (antibody) | 50 | 50
